Where two headings read alike, the source gives them in different places.
T1: FcγRIIa(H) (UniProt P12318 36-218, limits assumed)
T1 sequence (looked up): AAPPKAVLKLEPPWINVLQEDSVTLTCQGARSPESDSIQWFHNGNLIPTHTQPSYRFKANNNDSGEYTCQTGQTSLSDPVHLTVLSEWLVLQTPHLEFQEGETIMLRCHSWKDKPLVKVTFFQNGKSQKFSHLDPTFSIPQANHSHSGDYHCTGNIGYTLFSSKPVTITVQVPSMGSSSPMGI

T2: FcγRIIb (UniProt P31994 43-217, limits assumed)
T2 sequence (looked up): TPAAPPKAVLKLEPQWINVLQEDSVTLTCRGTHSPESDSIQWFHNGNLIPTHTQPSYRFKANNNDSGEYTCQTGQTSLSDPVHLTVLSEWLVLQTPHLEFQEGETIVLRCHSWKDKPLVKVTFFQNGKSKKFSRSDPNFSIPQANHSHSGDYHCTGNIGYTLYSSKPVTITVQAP

T3: hCD137** ((human CD137 amino acids 22-164, ΔC121S)-AAA-FLAG) (human, UniProt Q07011 22-164)
T3 construct: not shown: FLAG tag
T3 chain: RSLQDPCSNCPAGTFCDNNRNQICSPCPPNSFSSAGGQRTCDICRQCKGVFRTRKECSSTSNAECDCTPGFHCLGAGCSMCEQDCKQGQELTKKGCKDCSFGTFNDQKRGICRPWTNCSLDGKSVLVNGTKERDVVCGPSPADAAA


Tests used:
[1] = target: T4, Recombinant human extracellular CD137-Fc protein (R&D Systems) (human, UniProt Q07011 24-186); experiment: SPR (Biacore T200), CD137-Fc immobilised, 25° C., 1:1 Langmuir fit
T4 construct: Bought protein; also called human CD137-Fc; not shown: Fc part of the bought fusion protein

[2] = target: human CD137 on stably transfected human 293 cells (human, UniProt Q07011 24-255); experiment: cell-based or functional assay
FcγRIIa(H) = target: T1, FcγRIIa(H); experiment: MSD assay, Fcγ receptor coated
Experimental: (§1) Briefly, Fcγ receptors are coated onto a Meso Scale plate overnight and serially diluted test antibodies are added to the plate and incubated for 2 h. […] Luminescence is measured on a SECTOR Imager 2400 (Meso Scale Diagnostics) and data is analyzed using GraphPad Prism 7.0 software.

FcγRIIIa(V) = FcγRIIIa(V) (UniProt P08637 17-208, limits assumed); experiment: MSD assay, Fcγ receptor coated
Experimental: as §1

FcγRIIb = target: T2, FcγRIIb; experiment: MSD assay, Fcγ receptor coated
Experimental: as §1

FcγRIIIa(F) = FcγRIIIa(F) (UniProt P08637 17-208, limits assumed); experiment: MSD assay, Fcγ receptor coated
Experimental: as §1

FcγRI = FcγRI (UniProt P12314 16-288, limits assumed); experiment: MSD assay, Fcγ receptor coated
Experimental: as §1

[3] = target: T5, cynomolgus monkey CD137 on stably transfected human 293 cells (cynomolgus monkey, UniProt A9YYE7 24-254); experiment: flow cytometry on 293 cells expressing cynomolgus monkey CD137, antibody at 0.5 micrograms/mL; MFI of antibody / MFI of control IgG
T5 construct: whole, on cells; also called Cyno-CD137
Text: The ability of the antibodies disclosed herein to bind to cell surface cynomolgus monkey CD137 can be measured using a flow cytometric assay. Cynomolgus monkey CD137 expressing stable cells are generated by transfecting Cyno-CD137 receptor plasmid DNA into human 293 cells (ATCC) using Lipofectamine™ 2000 reagent (Invitrogen™) per manufacturer's protocol. Stable cells are selected using 0.5 micrograms/mL puromycin in Dulbecoo's Modified Eagle's Medium containing 10% fetal bovine serum and 1% GlutaMAX™. For flow cytometry, confluent adherent cells are detached using Gibco® Cell Dissociation Buffer (Life Technologies), blocked in FACS buffer (phosphate buffered saline containing 3% fetal bovine serum) for 1 h at 4° C., and then transferred into a 96-well round-bottom plate at a density of 1×10⁵ cells/well.
After washing in FACS buffer, secondary antibody R-phycoerythrin conjugated goat anti-human IgG, F(ab′)₂ fragment specific antibody (Jackson ImmunoResearch Laboratories) is added at a 1:200 dilution and cells are incubated at 4° C. for 30 minutes. Cells are washed and live/dead cell staining is performed using LIVE/DEAD® Fixable Far Red Dead Cell Stain kit (Life Technologies) per manufacturer's protocol. […] Flow cytometry data is analyzed using FlowJo® Software. Mean fluorescence intensity (MFI) ratio is calculated as the (MFI of Experimental antibody)/(MFI of the control IgG).

[4] = target: T6, human CD137-ECD-C121S-Fc mutant Q67V (human, UniProt Q07011 24-186); experiment: point ELISA, coated CD137-Fc mutant; mean of absorbance normalised to wild type over eight concentrations;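 note: antibody binding to plate-adsorbed CD137-Fc variants, detected with an HRP-labelled anti-Fab secondary antibody and TMB colour development read as absorbance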
T6 construct: not shown: Fc part

[5] = target: T7, human CD137-ECD-C121S-Fc mutant N42S (human, UniProt Q07011 24-186); experiment: as above
T7 construct: not shown: Fc part

[6] = target: T8, human CD137-ECD-C121S-Fc mutant S100T (human, UniProt Q07011 24-186); experiment: as above
T8 construct: not shown: Fc part

[7] = target: T9, human CD137-ECD-C121S-Fc mutant K114E (human, UniProt Q07011 24-186); experiment: as above
T9 construct: not shown: Fc part

[8] = target: T10, human CD137-ECD-C121S-Fc mutant G98Q (human, UniProt Q07011 24-186); experiment: as above
T10 construct: not shown: Fc part

[9] = target: T11, human CD137-ECD-C121S-Fc mutant D63N (human, UniProt Q07011 24-186); experiment: as above
T11 construct: not shown: Fc part

[10] = target: T12, human CD137-ECD-C121S-Fc mutant M101R (human, UniProt Q07011 24-186); experiment: as above
T12 construct: not shown: Fc part

[11] = target: T13, human CD137-ECD-C121S-Fc mutant P27L (human, UniProt Q07011 24-186); experiment: as above
T13 construct: not shown: Fc part

[12] = target: T14, human CD137-ECD-C121S-Fc mutant Q67R (human, UniProt Q07011 24-186); experiment: as above
T14 construct: not shown: Fc part

[13] = target: T15, human CD137-ECD-C121S-Fc mutant A97P (human, UniProt Q07011 24-186); experiment: as above
T15 construct: not shown: Fc part

[14] = target: T16, human CD137-ECD-C121S-Fc mutant K115Q (human, UniProt Q07011 24-186); experiment: as above
T16 construct: not shown: Fc part

[15] = target: T17, human CD137-ECD-C121S-Fc mutant Q104K (human, UniProt Q07011 24-186); experiment: as above
T17 construct: not shown: Fc part

[16] = target: T18, human CD137-ECD-C121S-Fc mutant G98K (human, UniProt Q07011 24-186); experiment: as above
T18 construct: not shown: Fc part

[17] = target: T3, hCD137** (human CD137 amino acids …); experiment: ELISA, coated hCD137**, anti-Fab detection
Experimental: The wells of a 96 well Immulon® 4HBX ELISA plate are coated overnight with 50 nanograms of hCD137** in 100 microliters of PBS, pH 7.2 with mild agitation at 4° C. […] The wells treated with the anti-CD137 antibodies are then washed and a 1:10000 dilution of HRP-conjugated goat anti-Fab antibody (Jackson ImmunoResearch Laboratories) is added and incubated at room temperature following standard protocol. The wells treated with hCD137L* are then washed and a 1:5000 dilution of HRP-conjugated mouse anti-His antibody (Sigma-Aldrich®) is added and the plates are incubated at room temperature following standard protocol. TMB peroxidase chromogenic substrate and stop solution are used according to manufacturer's instruction for visualization and detection of signals. Absorbance readings are plotted in GraphPad Prism Software Version 6. EC₅₀ values are calculated by nonlinear regression curve fit analysis of the software's One Site-Specific Binding function.

Human C1q = Human C1q (human, UniProt P02745 23-245; P02746 28-253; P02747 29-245); experiment: ELISA, antibody coated, human C1q added
Experimental: Human C1q in casein buffer is added at a concentration of 10 milligrams/mL and incubated for 2 hrs. Human C1q is detected by incubating the plates with anti-human C1q-HRP (AbD Serotec Inc., 1:200 dilution) for 1 h and the plate is developed using TMB (KPL, Inc.). Absorbance is measured at 450 nm with Synergy Neo2 hybrid multi-mode reader (BioTek®).

[18] = target: T4, Recombinant human extracellular …; experiment: ELISA, coated human CD137-Fc
Experimental: The ability of the antibodies disclosed herein to bind human CD137 can be measured by ELISA. […] Wells are blocked for 2 h with blocking buffer (PBS containing 0.2% bovine serum albumin and 0.05% Tween-20). Wells are washed three times with PBS containing 0.05% Tween-20. […] After washing, the plate is incubated with 100 microliters of goat anti-human IgG F(ab′)2-HRP conjugate (Jackson Immuno Research Laboratories) at room temperature for 45 minutes. The plates are washed and then incubated with 100 microliters of 3,3′, 5,5′-tetra-methylbenzidine. The absorbance at 650 nm is read on a SpectraMax® microplate reader. The half maximal effective concentration (EC₅₀) is calculated using GraphPad Prism 7 software.

[19] = target: T19, human CD137-ECD-C121S-Fc mutant I132V (human, UniProt Q07011 24-186); experiment: point ELISA, coated CD137-Fc mutant; mean of absorbance normalised to wild type over eight concentrations
T19 construct: not shown: Fc part

[20] = target: T20, human CD137-ECD-C121S-Fc mutant R134Q (human, UniProt Q07011 24-186); experiment: as above
T20 construct: not shown: Fc part

[21] = target: T16, human CD137-ECD-C121S-Fc mutant K115Q; experiment: as above; remark: listed apart in the source
Experimental: (§2) To determine the impact of a mutation on the binding of the antibodies, a point ELISA assay against CD137-Fc wild type and mutants is utilized. The wells of a 96-well Immulon 4HBX ELISA plate are coated overnight with 50 nanograms of human CD137-ECD-C121S-Fc or its mutants in 100 microliters of PBS, pH 7.2 with mild agitation at 4° C. […] The wells are washed and a HRP-conjugated secondary antibody (1:10000 dilution of HRP-conjugated goat anti-Fab antibody (Jackson ImmunoResearch Laboratories) is added and incubated at room temperature following standard protocol. TMB peroxidase chromogenic substrate and stop solution are used according to manufacturer's instruction for visualization and detection of signals. Absorbance readings for each concentration point is normalized by the absorbance of the wild-type interaction. For each mutant, the mean of the normalized ratio for the eight concentrations is determined.

[22] = target: T21, human CD137-ECD-C121S-Fc mutant R130H (human, UniProt Q07011 24-186); experiment: as above
T21 construct: not shown: Fc part

[23] = target: T22, human CD137-ECD-C121S-Fc mutant R130A (human, UniProt Q07011 24-186); experiment: as above
T22 construct: not shown: Fc part

[24] = target: T7, human CD137-ECD-C121S-Fc mutant N42S; experiment: point ELISA on coated CD137-Fc mutant; % of binding relative to wild-type hCD137
Experimental: as §2

T16 sequence (Q07011 24-186 K115Q/C121S): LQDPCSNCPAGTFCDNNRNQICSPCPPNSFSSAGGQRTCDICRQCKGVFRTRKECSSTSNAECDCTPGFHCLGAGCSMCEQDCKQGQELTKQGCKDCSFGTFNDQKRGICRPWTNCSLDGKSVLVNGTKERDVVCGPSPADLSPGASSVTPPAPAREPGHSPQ
Chain of human CD137 on stably transfected human 293 cells (Q07011 24-255 limits assumed): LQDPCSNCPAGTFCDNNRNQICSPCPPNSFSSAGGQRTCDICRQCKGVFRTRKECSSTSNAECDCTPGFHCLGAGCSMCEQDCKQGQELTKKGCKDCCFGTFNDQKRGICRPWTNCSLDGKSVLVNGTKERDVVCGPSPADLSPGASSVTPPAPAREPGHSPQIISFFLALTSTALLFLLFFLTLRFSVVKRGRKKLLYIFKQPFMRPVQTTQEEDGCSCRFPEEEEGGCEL
T12 sequence (Q07011 24-186 M101R/C121S): as the sequence (Q07011 24-186 K115Q/C121S) above, with M78R, Q92K counted along it
T18 sequence (Q07011 24-186 G98K/C121S): as the sequence (Q07011 24-186 K115Q/C121S) above, with G75K, Q92K counted along it
T7 sequence (Q07011 24-186 N42S/C121S): as the sequence (Q07011 24-186 K115Q/C121S) above, with N19S, Q92K counted along it
T10 sequence (Q07011 24-186 G98Q/C121S): as the sequence (Q07011 24-186 K115Q/C121S) above, with G75Q, Q92K counted along it
T13 sequence (Q07011 24-186 P27L/C121S): as the sequence (Q07011 24-186 K115Q/C121S) above, with P4L, Q92K counted along it
T5 sequence (A9YYE7 entry or part of it): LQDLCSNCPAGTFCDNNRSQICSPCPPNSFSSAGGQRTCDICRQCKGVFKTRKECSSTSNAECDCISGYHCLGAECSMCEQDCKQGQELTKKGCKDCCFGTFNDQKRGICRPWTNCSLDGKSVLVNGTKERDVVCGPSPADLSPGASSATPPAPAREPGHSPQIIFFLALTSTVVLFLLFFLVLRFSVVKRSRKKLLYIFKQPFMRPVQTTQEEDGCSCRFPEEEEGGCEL
T8 sequence (Q07011 24-186 S100T/C121S): as the sequence (Q07011 24-186 K115Q/C121S) above, with S77T, Q92K counted along it
T6 sequence (Q07011 24-186 Q67V/C121S): as the sequence (Q07011 24-186 K115Q/C121S) above, with Q44V, Q92K counted along it
T11 sequence (Q07011 24-186 D63N/C121S): as the sequence (Q07011 24-186 K115Q/C121S) above, with D40N, Q92K counted along it
T14 sequence (Q07011 24-186 Q67R/C121S): as the sequence (Q07011 24-186 K115Q/C121S) above, with Q44R, Q92K counted along it
T17 sequence (Q07011 24-186 Q104K/C121S): as the sequence (Q07011 24-186 K115Q/C121S) above, with Q81K, Q92K counted along it
T9 sequence (Q07011 24-186 K114E/C121S): as the sequence (Q07011 24-186 K115Q/C121S) above, with K91E, Q92K counted along it
T15 sequence (Q07011 24-186 A97P/C121S): as the sequence (Q07011 24-186 K115Q/C121S) above, with A74P, Q92K counted along it
Chain of FcγRI (P12314 16-288 limits assumed): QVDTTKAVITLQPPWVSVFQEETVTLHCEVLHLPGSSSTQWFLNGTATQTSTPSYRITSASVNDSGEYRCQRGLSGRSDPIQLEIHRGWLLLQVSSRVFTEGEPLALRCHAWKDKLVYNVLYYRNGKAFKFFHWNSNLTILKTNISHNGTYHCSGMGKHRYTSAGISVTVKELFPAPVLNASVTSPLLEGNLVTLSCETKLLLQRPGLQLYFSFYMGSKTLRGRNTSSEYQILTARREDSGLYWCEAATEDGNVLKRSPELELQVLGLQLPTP
Chain of Human C1q (P02745 23-245 limits assumed, chain 1 of 3): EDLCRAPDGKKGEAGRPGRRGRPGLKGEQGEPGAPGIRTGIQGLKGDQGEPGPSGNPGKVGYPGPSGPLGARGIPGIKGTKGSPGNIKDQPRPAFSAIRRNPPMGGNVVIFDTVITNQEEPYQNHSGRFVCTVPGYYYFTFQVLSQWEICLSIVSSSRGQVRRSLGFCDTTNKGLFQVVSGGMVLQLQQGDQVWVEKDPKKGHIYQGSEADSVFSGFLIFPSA
Chain of Human C1q (P02746 28-253 limits assumed, chain 2 of 3): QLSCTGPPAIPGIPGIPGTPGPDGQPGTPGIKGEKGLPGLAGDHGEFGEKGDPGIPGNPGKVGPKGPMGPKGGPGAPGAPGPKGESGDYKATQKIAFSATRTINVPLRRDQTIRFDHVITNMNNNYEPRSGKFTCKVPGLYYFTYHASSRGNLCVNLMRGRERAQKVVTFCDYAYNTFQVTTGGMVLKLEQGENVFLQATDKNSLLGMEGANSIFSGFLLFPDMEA
Chain of Human C1q (P02747 29-245 limits assumed, chain 3 of 3): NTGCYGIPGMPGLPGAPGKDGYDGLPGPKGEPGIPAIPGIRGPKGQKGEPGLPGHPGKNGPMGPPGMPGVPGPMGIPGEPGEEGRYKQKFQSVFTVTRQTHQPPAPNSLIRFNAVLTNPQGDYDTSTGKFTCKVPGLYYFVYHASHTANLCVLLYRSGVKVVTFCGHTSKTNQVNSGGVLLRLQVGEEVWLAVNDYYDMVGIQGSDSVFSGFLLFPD
Chain of FcγRIIIa(F) (P08637 17-208 limits assumed): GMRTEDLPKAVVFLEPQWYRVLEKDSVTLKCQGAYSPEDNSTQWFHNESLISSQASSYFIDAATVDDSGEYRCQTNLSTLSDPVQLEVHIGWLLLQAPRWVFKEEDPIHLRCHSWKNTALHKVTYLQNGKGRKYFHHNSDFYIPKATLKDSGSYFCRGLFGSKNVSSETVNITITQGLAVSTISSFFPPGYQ
T21 sequence (Q07011 24-186 C121S/R130H): as the sequence (Q07011 24-186 K115Q/C121S) above, with Q92K, R107H counted along it
T22 sequence (Q07011 24-186 C121S/R130A): as the sequence (Q07011 24-186 K115Q/C121S) above, with Q92K, R107A counted along it
T19 sequence (Q07011 24-186 C121S/I132V): as the sequence (Q07011 24-186 K115Q/C121S) above, with Q92K, I109V counted along it
T20 sequence (Q07011 24-186 C121S/R134Q): as the sequence (Q07011 24-186 K115Q/C121S) above, with Q92K, R111Q counted along it
Chain of FcγRIIIa(V) (P08637 17-208 F176V limits assumed): as the sequence (P08637 17-208 limits assumed) above, with F160V counted along it

| Binder | Kd [1] [nM] | koff [1] [s⁻¹] | kon [1] [M⁻¹ s⁻¹] | max activity, NF-kappaB luciferase reporter [2] [%] | MFI ratio [3] | % of binding relative to wild-type hCD137 [4] [%] | % of binding relative to wild-type hCD137 [6] [%] | % of binding relative to wild-type hCD137 [7] [%] | % of binding relative to wild-type hCD137 [8] [%] | % of binding relative to wild-type hCD137 [9] [%] | % of binding relative to wild-type hCD137 [10] [%] | % of binding relative to wild-type hCD137 [11] [%] | % of binding relative to wild-type hCD137 [12] [%] | % of binding relative to wild-type hCD137 [13] [%] | % of binding relative to wild-type hCD137 [14] [%] | % of binding relative to wild-type hCD137 [15] [%] | % of binding relative to wild-type hCD137 [16] [%] | EC50 [17] [nM] | other results |
| --- | --- | --- | --- | --- | --- | --- | --- | --- | --- | --- | --- | --- | --- | --- | --- | --- | --- | --- | --- |
| Antibody A2 (antibody, human IgG1, kappa, Form lacking the N-terminal alanine of the light chain; IgG1 Fc-null, kappa) heavy: not shown light: IRMTQSPPSLSASVGDRVTITCQASQDIGNSLGWYQQKPGKAPKLVIFDASDLETGVPSRFSGSGSGTDFSLTISSLQPEDFATYYCQQGNSFPLTFGQGTRLEIKRTVAAPSVFIFPPSDEQLKSGTASVVCLLNNFYPREAKVQWKVDNALQSGNSQESVTEQDSKDSTYSLSSTLTLSKADYEKHKVYACEVTHQGLSSPVTKSFNRGEC | 5.36 | 0.00713 | 1.33e+06 | 72.3 | – | – | – | – | – | – | – | – | – | – | – | – | – | – | – |
| Antibody A1/2 (antibody, human IgG1, kappa, Human IgG1 Fc-null, kappa; also called Antibody 1/2) heavy: not shown light: IRMTQSPPSLSASVGDRVTITCQASQDIGNSLGWYQQKPGKAPKLVIFDASDLETGVPSRFSGSGSGTDFSLTISSLQPEDFATYYCQQGNSFPLTFGQGTRLEIKRTVAAPSVFIFPPSDEQLKSGTASVVCLLNNFYPREAKVQWKVDNALQSGNSQESVTEQDSKDSTYSLSSTLTLSKADYEKHKVYACEVTHQGLSSPVTKSFNRGEC | 4.67 | 0.00711 | 1.52e+06 | – | 153 | 100 | 100 | 20 | 100 | 100 | 100 | 100 | 100 | 15 | 25 | 100 | 85 | 1.4 | EC50 (FcγRIIa(H)): > 134 nM; EC50 (FcγRIIIa(V)): > 134 nM; EC50 (FcγRIIb): > 134 nM; EC50 (FcγRIIIa(F)): > 134 nM; EC50 (FcγRI): > 5 nM; % of binding relative to wild-type hCD137 [5]: 100%; EC50 (Human C1q): > 330 nM; EC50 [18]: 0.027 nM; % of binding relative to wild-type hCD137 [19]: 100%; % of binding relative to wild-type hCD137 [20]: 100%; % of binding relative to wild-type hCD137 [21]: 25%; % of binding relative to wild-type hCD137 [22]: 100%; % of binding relative to wild-type hCD137 [23]: 100% |
| Antibody A1 (antibody, human IgG1, kappa, Full length form; IgG1 Fc-null, kappa) heavy: not shown light: AIRMTQSPPSLSASVGDRVTITCQASQDIGNSLGWYQQKPGKAPKLVIFDASDLETGVPSRFSGSGSGTDFSLTISSLQPEDFATYYCQQGNSFPLTFGQGTRLEIKRTVAAPSVFIFPPSDEQLKSGTASVVCLLNNFYPREAKVQWKVDNALQSGNSQESVTEQDSKDSTYSLSSTLTLSKADYEKHKVYACEVTHQGLSSPVTKSFNRGEC | 3.33 | 0.00536 | 1.61e+06 | 63.4 | – | – | – | – | – | – | – | – | – | – | – | – | – | – | – |

More lines, main results first:

| Kd [1] [nM] | koff [1] [s⁻¹] | kon [1] [M⁻¹ s⁻¹] | max activity, NF-kappaB luciferase reporter [2] [%] | MFI ratio [3] | % of binding relative to wild-type hCD137 [4] [%] | % of binding relative to wild-type hCD137 [6] [%] | % of binding relative to wild-type hCD137 [7] [%] | % of binding relative to wild-type hCD137 [8] [%] | % of binding relative to wild-type hCD137 [9] [%] | % of binding relative to wild-type hCD137 [10] [%] | % of binding relative to wild-type hCD137 [11] [%] | % of binding relative to wild-type hCD137 [12] [%] | % of binding relative to wild-type hCD137 [13] [%] | % of binding relative to wild-type hCD137 [14] [%] | % of binding relative to wild-type hCD137 [15] [%] | % of binding relative to wild-type hCD137 [16] [%] | EC50 [17] [nM] | Binder | other results |
| --- | --- | --- | --- | --- | --- | --- | --- | --- | --- | --- | --- | --- | --- | --- | --- | --- | --- | --- | --- |
| – | – | – | 115 | – | 100 | 100 | 100 | 100 | 100 | 100 | 85 | 100 | 100 | 100 | 100 | 100 | 0.43 | BMS20H4.9 (antibody, human IgG4 S228P, kappa, V domains shown, Comparator anti-CD137 antibody, previously described in U.S. Pat. No. 7,288,638) VH: QVQLQQWGAGLLKPSETLSLTCAVYGGSFSGYYWSWIRQSPEKGLEWIGEINHGGYVTYNPSLESRVTISVDTSKNQFSLKLSSVTAADTAVYYCARDYGPGNYDWYFDLWGRGTLVTVSS VL: EIVLTQSPATLSLSPGERATLSCRASQSVSSYLAWYQQKPGQAPRLLIYDASNRATGIPARFSGSGSGTDFTLTISSLEPEDFAVYYCQQRSNWPPALTFGGGTKVEIKR | binding result [24]: no binding |
| – | – | – | – | 37 | – | – | – | – | – | – | – | – | – | – | – | – | – | PF83 (antibody, V domains shown, Comparator anti-CD137 antibody, previously described in U.S. Pat. No. 8,337,850) VH: EVQLVQSGAEVKKPGESLRISCKGSGYSFSTYWISWVRQMPGKGLEWMGKIYPGDSYTNYSPSFQGQVTISADKSISTAYLQWSSLKASDTAMYYCARGYGIFDYWGQGTLVTVSS VL: SYELTQPPSVSVSPGQTASITCSGDNIGDQYAHWYQQKPGQSPVLVIYQDKNRPSGIPERFSGSNSGNTATLTISGTQAMDEADYYCATYTGFGSLAVFGGGTKLTVLG | – |

From patent US20210054088A1 (Eli Lilly, published 2021)
